The text below walks through data of article doi:10.1101/2023.12.12.570754.

Experiment [1] deals with Ku70-Ku80 heterodimer deleted of its C-terminal regions (Ku70 1-544, Ku80 1-551) (human) (UniProt P12956). Briefly: ITC.
Experiment [2] concerns the target full-length human Ku heterodimer (Ku70 1-609, Ku80 1-732) (human) (UniProt P12956). The experiment can be described thus: ITC.

Turning to “RAG2c peptide, containing motifs 1 and 2 of the RAG2 C-terminus (RAG2-KBM)”, in experiment [1], the equilibrium dissociation constant (Kd) was determined as 840 nM and the fold weaker affinity than with the 42 bp DNA was 7 fold. In experiment [2], this substance had a Kd of 1180 nM.
